T1: human CD32B expressed on CHO-K1 cells (human, UniProt P31994 43-310)
T1 construct: whole, on cells; also called hCD32B
T1 sequence (looked up): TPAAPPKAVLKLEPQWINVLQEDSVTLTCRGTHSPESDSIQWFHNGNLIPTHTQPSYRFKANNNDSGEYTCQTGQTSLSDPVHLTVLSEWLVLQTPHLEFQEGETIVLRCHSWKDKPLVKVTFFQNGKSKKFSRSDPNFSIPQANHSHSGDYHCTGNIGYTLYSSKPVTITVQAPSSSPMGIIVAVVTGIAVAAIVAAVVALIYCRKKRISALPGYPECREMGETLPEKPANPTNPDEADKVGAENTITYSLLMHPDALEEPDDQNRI


What was measured:
[1] = biological target: T2, human CD16A-158V expressed on CHO-K1 cells (human, UniProt P08637 17-254); assay: flow cytometry, CHO-K1-hCD16A-158V cells, Alexa Fluor 647 anti-human IgG Fc, geometric mean
T2 construct: whole, on cells; also called hCD16A-158V; CHO-K1-hCD16A-158V

[2] = biological target: T1, human CD32B expressed on CHO-K1 cells; assay: flow cytometry, CHO-K1-hCD32B cells, geometric mean
Description: (§1) In order to evaluate the binding activity of the chimeric mAbs to human CD16A expressed on cells, cell-based binding assay was employed as followed. […] The antibody dilutions were incubated with 1×10⁵ indicated cells in the 96-well microplate for one hour at 4° C. The antibodies binding to the antigen on the cell surface were detected with PE fluorophore-conjugated anti-human IgG Fc secondary antibodies (ThermoFisher scientific, Cat. No. 12-4998-82) at a dilution rate of 1:1000. Cells were analyzed by flow cytometer LSRFortessa Cell Analyzer (BD Biosciences). Data were analyzed with Flowjo 10.0 software. The graph and statistics analysis were generated with four-parameter nonlinear regression curve fit in Graphpad Prism 9 software.
To exclude the non-specific binding of the CD16A chimeric antibody to human CD16B and CD32B expressed on cells, cell-based binding assay was performed as described above. Firstly, CHO-K1 cells were stably transferred with one human CD16B spliced isoform hCD16B-NA1 and human CD32B. Then, the cells were incubated with the indicated concentrations of CD16A chimeric antibodies.

[3] = biological target: T2, human CD16A-158V expressed on CHO-K1 …; assay: flow cytometry, CHO-K1-hCD16A-158V cells, geometric mean
Description: as §1
The assay was performed following the protocol described above.

hCD16A-158F-his protein = biological target: T3, hCD16A-158F-his protein (human, UniProt P08637 17-208); assay: ELISA, plate-coated his-tagged antigen 2 ug/mL
T3 construct: Bought protein
Description: (§2) In order to determine the binding ability of the chimeric Abs to human CD16A protein, ELISA-based binding assay was performed as followed. […] The mixture was incubated for 1 hour at room temperature (RT). The primary antibody was recognized by a detective antibody against human IgG Fc which was conjugated with horseradish peroxidase (HRP) (Jackson Immuno, Cat. No. 109-035-008). Tetramethylbenzidine (TMB), a substrate of HRP, was added to the wells to visualize the binding signal. After sufficient color development, stop solution was added to the wells. The absorbance of the signal was detected at 450 nm with Envision multilabel plate readers (PerkinElemer). The graph and statistics analysis were generated with four-parameter nonlinear regression curve fit in Graphpad Prism 9 software.
(§3) In order to determine the cross reactivity of the chimeric Abs to cynomolgus CD16, ELISA binding assay was performed as described above. Recombinant cyno CD16 ECD his tag protein (cynoCD16-his, Acro Bio, Cat. No. FC6-C52H9) was used as the coating antigen at 2 μg/mL.

hCD16A-158V-his protein = biological target: T4, hCD16A-158V-his protein (human, UniProt P08637 17-208); assay: ELISA, plate-coated his-tagged antigen 2 ug/mL
T4 construct: extracellular domain; Bought protein; also called human CD16A-158V-his; Human CD16A-158V (protein)
Description: as §2, §3

[4] = biological target: T5, Recombinant cyno CD16 ECD his tag protein (cynomolgus, UniProt Q8SPW2 17-208); assay: ELISA, plate-coated his-tagged antigen 2 ug/mL
T5 construct: extracellular domain; Bought protein; also called cynoCD16-his; cynomolgus CD16-his
Description: as §2, §3

[5] = biological target: T6, cynomolgus CD16 expressed on CHO-K1 cells (cynomolgus, UniProt Q8SPW2 17-254); assay: flow cytometry, CHO-K1-cyno CD16 cells, Alexa Fluor 647 anti-human IgG Fc, geometric mean
T6 construct: whole, on cells; also called cyno CD16; CHO-K1-cynoCD16
T6 sequence (Q8SPW2 17-254): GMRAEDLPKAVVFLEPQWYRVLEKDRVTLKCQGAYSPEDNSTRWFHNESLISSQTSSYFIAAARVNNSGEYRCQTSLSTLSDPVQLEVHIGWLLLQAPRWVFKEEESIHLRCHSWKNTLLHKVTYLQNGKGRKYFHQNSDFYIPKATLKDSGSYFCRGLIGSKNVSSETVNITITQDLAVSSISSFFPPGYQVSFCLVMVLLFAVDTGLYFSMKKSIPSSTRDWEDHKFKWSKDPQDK

T2 sequence (P08637 17-254 F176V): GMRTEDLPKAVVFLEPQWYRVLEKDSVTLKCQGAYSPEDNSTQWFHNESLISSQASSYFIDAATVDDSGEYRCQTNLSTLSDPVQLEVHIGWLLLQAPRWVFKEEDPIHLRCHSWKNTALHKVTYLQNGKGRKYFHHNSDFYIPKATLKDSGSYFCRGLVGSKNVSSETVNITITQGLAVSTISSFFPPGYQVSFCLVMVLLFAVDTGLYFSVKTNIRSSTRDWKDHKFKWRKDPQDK
T3 sequence (P08637 17-208 limits assumed): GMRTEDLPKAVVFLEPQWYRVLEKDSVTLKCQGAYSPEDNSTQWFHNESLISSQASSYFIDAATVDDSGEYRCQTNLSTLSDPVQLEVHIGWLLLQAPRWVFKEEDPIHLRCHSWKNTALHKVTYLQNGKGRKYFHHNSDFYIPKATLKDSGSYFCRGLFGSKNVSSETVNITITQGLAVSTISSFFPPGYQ
T5 sequence (Q8SPW2 17-208): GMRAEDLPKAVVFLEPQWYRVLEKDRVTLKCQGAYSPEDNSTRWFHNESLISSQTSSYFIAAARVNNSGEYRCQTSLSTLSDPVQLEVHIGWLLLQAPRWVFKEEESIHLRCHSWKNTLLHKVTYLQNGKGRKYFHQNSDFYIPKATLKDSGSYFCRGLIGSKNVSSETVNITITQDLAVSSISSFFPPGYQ
T4 sequence (P08637 17-208 F176V): as the sequence (P08637 17-208 limits assumed) above, with F160V counted along it

Row | Binder | EC50 (read off the curve) [1] [nM] | binding result [2] | EC50 (read off the curve) [3] [nM] | EC50 (hCD16A-158F-his protein) [nM] | EC50 (hCD16A-158V-his protein) [nM] | EC50 [4] [nM] | EC50 (read off the curve) [5] [nM]
1 | 45H6E8-hIgG1 LALAPG (antibody, also called 45H6E8 chimeric antibody) heavy: EVQLQQSGAELVRSGASVKLSCTASGFNIKDYYMQWVKQRPEQGLEWIGWIDPENGDTEYAPKFQGKATMTADTSSNTAYLQLSSLTSEDTAVYYCTTGGNYVDWGQGTTLTVSSASTKGPSVFPLAPSSKSTSGGTAALGCLVKDYFPEPVTVSWNSGALTSGVHTFPAVLQSSGLYSLSSVVTVPSSSLGTQTYICNVNHKPSNTKVDKKVEPKSCDKTHTCPPCPAPEAAGGPSVFLFPPKPKDTLMISRTPEVTCVVVDVSHEDPEVKFNWYVDGVEVHNAKTKPREEQYNSTYRVVSVLTVLHQDWLNGKEYKCKVSNKALGAPIEKTISKAKGQPREPQVYTLPPSREEMTKNQVSLTCLVKGFYPSDIAVEWESNGQPENNYKTTPPVLDSDGSFFLYSKLTVDKSRWQQGNVFSCSVMHEALHNHYTQKSLSLSPGK light: DIVMTQSQKFMSTSVGDRVSITCKASQNVGTAVAWYQQKPGQSPKLLIYSASNRYTGVPDRFTGSGSGTDFTLTISNMQSEDLADYFCQQYSSYPLLTFGAGTNLELKRTVAAPSVFIFPPSDEQLKSGTASVVCLLNNFYPREAKVQWKVDNALQSGNSQESVTEQDSKDSTYSLSSTLTLSKADYEKHKVYACEVTHQGLSSPVTKSFNRGEC | ~0.4 | no binding (tested: 100 nM) | ~0.4 | 0.33 | 0.1 | 0.68 | ~1
2 | P2C47-hIgG1 LALAPG (antibody, also called benchmark antibody P2C47) heavy: QVQLVQSGAEVKKPGESLKVSCKASGYTFTSYYMHWVRQAPGQGLEWMGAIEPMYGSTSYAQKFQGRVTMTRDTSTSTVYMELSSLRSEDTAVYYCARGSAYYYDFADYWGQGTLVTVSSASTKGPSVFPLAPSSKSTSGGTAALGCLVKDYFPEPVTVSWNSGALTSGVHTFPAVLQSSGLYSLSSVVTVPSSSLGTQTYICNVNHKPSNTKVDKKVEPKSCDKTHTCPPCPAPEAAGGPSVFLFPPKPKDTLMISRTPEVTCVVVDVSHEDPEVKFNWYVDGVEVHNAKTKPREEQYNSTYRVVSVLTVLHQDWLNGKEYKCKVSNKALGAPIEKTISKAKGQPREPQVYTLPPSREEMTKNQVSLTCLVKGFYPSDIAVEWESNGQPENNYKTTPPVLDSDGSFFLYSKLTVDKSRWQQGNVFSCSVMHEALHNHYTQKSLSLSPGK light: SYVLTQPSSVSVAPGQTATISCGGHNIGSKNVHWYQQRPGQSPVLVIYQDNKRPSGIPERFSGSNSGNTATLTISGTQAMDEADYYCQVWDNYSVLFGGGTKLTVLGQPKANPTVTLFPPSSEELQANKATLVCLISDFYPGAVTVAWKADGSPVKAGVETTKPSKQSNNKYAASSYLSLTPEQWKSHRSYSCQVTHEGSTVEKTVAPTECS | ~0.4 | no binding (tested: 100 nM) | ~0.4 | 0.32 | 0.12 | 0.73 | ~1

Reference: patent US20260242485A1 (LEPU BIOPHARMA, published 2026)
